Results published in publication PMC5674511, “Increase of enzyme activity through specific covalent modification with fragments” (Chemical Science, 2017).

Key:
[1] = system: T1, CC(=O)N[C@H]1[C@H](Oc2ccc3c(C)cc(=O)oc3c2)O[C@H](CO)[C@@H](O)[C@@H]1O; experiment: fluorescence, 4MU release, Michaelis-Menten; format: biochemical, Bacteroides thetaiotaomicron
T1 construct: recombinant purified enzyme

[2] = system: T1, CC(=O)N[C@H]1[C@H](Oc2ccc3c(C)cc(=O)oc3c2)O[C@H](CO)[C@@H](O)[C@@H]1O; experiment: fluorescence, 4MU release, Michaelis-Menten; format: biochemical, Bacteroides thetaiotaomicron; settings: unmodified BtGH84_TM (no tethered fragment)
Excerpt: fluorescence, 4MU release, Michaelis-Menten on BtGH84

## BtGH84 (Bacteroides thetaiotaomicron VPI-5482; C441S/C675S/Y158F/Y571C)
[1]; unmodified BtGH84_QM
  Km: 11.215 ± 3.274 mM
  kcat: 77 ± 15 s⁻¹

## BtGH84 (Bacteroides thetaiotaomicron VPI-5482; C441S/C675S/Y571C)
[2]
  Km: 4.68 ± 0.22 mM
  kcat: 127 ± 6 s⁻¹
  kcat/Km: 27200 ± 2460 M⁻¹ s⁻¹

## BtGH84 (Bacteroides thetaiotaomicron VPI-5482; Y158F)
[1]; unmodified BtGH84_Y137F
  Km: 6.61 ± 1.282 mM
  kcat: 87 ± 4 s⁻¹
